One block for each binder: values may come before it.
Columns and labels:
Conditions in all cases: both partners purified
SurA-WT [1] = biological target: T1, SurA-WT (E. coli, UniProt P0ABZ6 21-428); experiment: NMR titration; methyl-TROSY (2D 1H-13C SOFAST-HMQC) of Ile/Met 13CH3-labelled SurA-WT, single point: 5 µM SurA and 5 µM unfolded OMP; 5 mM EDTA, 20 mM Tris-HCl, pH 8.0, 0.8 M urea, 25 °C; peak intensities and CSPs
T1 construct: no cleavage step is described; For NMR the protein was made in D2O medium with 13C labels on Ile delta1 and Met epsilon methyls; also called wild-type SurA; apo-SurA; source: E. coli BL21(DE3), purified (HisTrap, dialysis)
T1 sequence (looked up): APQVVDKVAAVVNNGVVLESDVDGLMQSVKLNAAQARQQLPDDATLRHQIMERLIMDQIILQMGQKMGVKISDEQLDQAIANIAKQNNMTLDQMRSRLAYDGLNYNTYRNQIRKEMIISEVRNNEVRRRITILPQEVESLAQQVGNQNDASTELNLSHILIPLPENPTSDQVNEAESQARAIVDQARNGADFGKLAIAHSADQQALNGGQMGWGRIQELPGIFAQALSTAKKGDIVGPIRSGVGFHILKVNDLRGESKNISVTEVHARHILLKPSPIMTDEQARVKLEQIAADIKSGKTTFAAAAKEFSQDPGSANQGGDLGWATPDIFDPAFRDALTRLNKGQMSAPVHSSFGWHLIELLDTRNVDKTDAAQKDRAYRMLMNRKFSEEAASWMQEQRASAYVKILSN

SurA-core [2] = biological target: T2, SurA-core (E. coli, UniProt P0ABZ6 21-428, deleting codons for residues 172–389); experiment: FRET or BRET; single-molecule FRET (pulsed interleaved excitation) between donor and acceptor on the two termini of unfolded OmpX (~75 pM) with 30 μM SurA-WT or SurA-core; 20 mM Tris-HCl, 0.1 M urea, 0.02% Tween-20, 1 mM aged Trolox, pH 8.0, ~21 °C; binding is read from the change of the client's own FRET distribution
T2 construct: gene numbering including the signal peptide; no cleavage step described; also called core domain; construct lacking both PPIase domains; source: E. coli BL21(DE3), purified (HisTrap, dialysis)
T2 sequence (looked up): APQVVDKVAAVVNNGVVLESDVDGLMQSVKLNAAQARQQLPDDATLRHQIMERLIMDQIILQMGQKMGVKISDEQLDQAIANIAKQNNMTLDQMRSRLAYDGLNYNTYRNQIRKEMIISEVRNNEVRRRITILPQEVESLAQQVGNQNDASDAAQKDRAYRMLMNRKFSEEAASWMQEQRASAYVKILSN

SurA-WT [3] = biological target: T1, SurA-WT; experiment: as above
SurA-core [4] = biological target: T2, SurA-core; experiment: MST; 100 nM Alexa Fluor 488-labelled tBamA or OmpX, SurA-WT or SurA-core in serial dilution (40 μM–1.2 nM for tBamA, 12.5 μM–3 nM for OmpX); 0.8 M urea, 20 mM Tris-HCl, pH 8.0, 25 °C; fitted to a Hill equation, apparent Kd
SurA-WT [5] = biological target: T1, SurA-WT; experiment: as above

B1: tOmpA (domain or fragment, UniProt P0A910 22-192, looked up)
chain: APKDNTWYTGAKLGWSQYHDTGFINNNGPTHENQLGAGAFGGYQVNPYVGFEMGYDWLGRMPYKGSVENGAYKAQGVQLTAKLGYPITDDLDIYTRLGGMVWRADTKSNVYGKNHDTGVSPVFAGGVEYAITPEIATRLEYQWTNNIGDAHTIGTRPDNGMLSLGVSYRFG
notes: Unfolded client (0.8 M urea); source: E. coli BL21[DE3], inclusion bodies, purified in 6 M Gdn-HCl (Superdex 75)
binding result (SurA-WT [1]): binds

B2: Cys-OmpX-Cys labelled with Alexa Fluor 488 and ATTO 565 (natural protein)
chain: MGSCATSTVTGGYAQSDAQGQMNKMGGFNLKYRYEEDNSPLGVIGSFTYTEKSRTASSGDYNKNQYYGITAGPAYRINDWASIYGVVGVGYGKFQTTEYPTYKHDTSDYGFSYGAGLQFNPMENVALDFSYEQSRIRSVDVGTWIAGVGYRFC
modifications: Alexa Fluor 488 and ATTO 565 via maleimide on the N- and C-terminal Cys residues (stochastic labelling)
notes: additional C-terminal Cys residue; Unfolded client in 0.1 M urea; also called OmpX (smFRET); FRET-labelled OmpX; source: E. coli BL21[DE3], inclusion bodies, purified; labelled by maleimide chemistry
binding result (SurA-core [2]): binds
binding result (SurA-WT [3]): binds

Second part, the binder after the results:

binding result (SurA-WT [1]): binds
B3: OmpX (natural protein, UniProt P0A917 24-171, looked up)
chain: ATSTVTGGYAQSDAQGQMNKMGGFNLKYRYEEDNSPLGVIGSFTYTEKSRTASSGDYNKNQYYGITAGPAYRINDWASIYGVVGVGYGKFQTTEYPTYKHDTSDYGFSYGAGLQFNPMENVALDFSYEQSRIRSVDVGTWIAGVGYRF
notes: Unfolded client in the assay (0.8 M urea); Cloned at the NdeI site, so a start Met probably precedes residue 24; also called unfolded OmpX; full-length OmpX; source: E. coli BL21[DE3], inclusion bodies, purified in 6 M Gdn-HCl (Superdex 75)

binding result (SurA-core [4]): binds
binding result (SurA-WT [5]): binds
B4: Cys-OmpX labelled with Alexa Fluor 488 (natural protein)
chain: MGSCATSTVTGGYAQSDAQGQMNKMGGFNLKYRYEEDNSPLGVIGSFTYTEKSRTASSGDYNKNQYYGITAGPAYRINDWASIYGVVGVGYGKFQTTEYPTYKHDTSDYGFSYGAGLQFNPMENVALDFSYEQSRIRSVDVGTWIAGVGYRF
modifications: Alexa Fluor 488 on the N-terminal Cys
notes: lacks the C-terminal Cys of Cys-OmpX-Cys; The MST methods say only 'Alexa Fluor 488-labelled OmpX'; also called Alexa Fluor 488-labelled OmpX; OmpX (MST); source: E. coli BL21[DE3], inclusion bodies, purified; labelled by maleimide chemistry

binding result (SurA-WT [1]): binds
B5: OmpF (natural protein, UniProt P02931 23-362, looked up)
chain: AEIYNKDGNKVDLYGKAVGLHYFSKGNGENSYGGNGDMTYARLGFKGETQINSDLTGYGQWEYNFQGNNSEGADAQTGNKTRLAFAGLKYADVGSFDYGRNYGVVYDALGYTDMLPEFGGDTAYSDDFFVGRVGGVATYRNSNFFGLVDGLNFAVQYLGKNERDTARRSNGDGVGGSISYEYEGFGIVGAYGAADRTNLQEAQPLGNGKKAEQWATGLKYDANNIYLAANYGETRNATPITNKFTNTSGFANKTQDVLLVAQYQFDFGLRPSIAYTKSKAKDVEGIGDVDLVNYFEVGATYYFNKNMSTYVDYIINQIDSDNKLGVGSDDTVAVGIVYQF
notes: as for B1

Source: publication PMC11401910, “Dual client binding sites in the ATP-independent chaperone SurA” (Nature Communications, 2024)
